Key:
[1] = molecular target: T1, human B-cell maturation antigen (BCMA) (human, UniProt Q02223 1-184); test: standard IHC (Envision FLEX) on reactive lymph node
T1 construct: whole, on cells; Endogenous BCMA in tissue sections and BCMA-positive cell lines; also called tumor necrosis factor receptor superfamily member 17; TNFRSF17
T1 sequence (looked up): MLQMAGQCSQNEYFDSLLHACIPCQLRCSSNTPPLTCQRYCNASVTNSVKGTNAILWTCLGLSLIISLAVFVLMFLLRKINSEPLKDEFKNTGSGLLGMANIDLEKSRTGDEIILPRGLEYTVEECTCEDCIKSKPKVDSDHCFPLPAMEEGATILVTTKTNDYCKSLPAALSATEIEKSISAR

[2] = molecular target: T2, recombinant fusion protein containing the entire extracellular domain of human BCMA (amino acids 1-54) in … (human, UniProt Q02223 1-54); test: BLI (BLItz), recombinant antibody on the immunising antigen
T2 construct: range 1-54; Expressed in HEK cells; also called BCMA antigen; extracellular BCMA antigen; not shown: rabbit Fc domain
T2 sequence (looked up): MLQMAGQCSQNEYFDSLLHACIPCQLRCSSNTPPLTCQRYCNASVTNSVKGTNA

[3] = molecular target: T1, human B-cell maturation antigen (BCMA); test: supersensitive IHC on normal colon
[4] = molecular target: T1, human B-cell maturation antigen (BCMA); test: supersensitive IHC on reactive lymph node
[5] = molecular target: T3, recombinant fusion protein containing the entire intracellular domain of BCMA (amino acids 78-184) (human, UniProt Q02223 78-184); test: BLI (BLItz), recombinant antibody on the immunising antigen
T3 construct: range 78-184; also called intracellular BCMA antigen; the antigen
T3 sequence (looked up): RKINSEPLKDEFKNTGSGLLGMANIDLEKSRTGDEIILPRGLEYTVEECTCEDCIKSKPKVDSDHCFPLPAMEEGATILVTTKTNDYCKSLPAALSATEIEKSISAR

B1: anti-human BCMA antibody clone 10A2 (Extracellular) (antibody, V domains shown)
VH: QSVEESGGRLVTPGTPLTLTCTASGFSLTTYAMGWVRQAPGKGLEWIGYIWSSGTTDYASWAKGRFTISKTSPTVDLKMTSPTTEDTATYFCARYINYVTGDLWGQGTLVTVSS
VL: AQVLTQTPSPVSADVGGTVTINCQASQSVYNNVLLAWYQQKAGQPPKLLIYKASTLASGVSSRFKGSGSGTQFTLTISGVQCDDAATYYCQGEFSCSSADCTAFGGGTEVVVKG
notes: Rabbit monoclonal IgG/kappa1; The chains are built here from V + constant entries so that the signal peptide is left out; Supersensitive IHC used B-cell culture supernatant; BLI and standard IHC used recombinant antibody from HEK293-6E cells; also called B cell clone 10A2; BCMA clone 10A2
binding result [1]: binds | binding result [2]: binds

B2: anti-human BCMA antibody clone 9H5 (Extracellular) (antibody, V domains shown)
VH: QSLEESGGRLVTPGGSLTLTCTVSGFSLSAYAMSWVRQAPGKGLEWIGYINYDGIAYYTNWAKGRFTISKTSTTVDLKITSPTTEDTAAYFCASDLLGVFNLWGQGTLVTVSS
VL: AAVLTQTASPVSAAVGGTVTINCQASQSVYSNNRLSWFQQKPGQPPKLLIYYASFLASGVPSRFKGSGSGAQFTLTISDLQCDDAATYYCAGGYISYSDNAFGGGTEVVVKG
notes: Rabbit monoclonal IgG/kappa1; The chains are built here from V + constant entries so that the signal peptide is left out; Supersensitive IHC used B-cell culture supernatant; BLI and standard IHC used recombinant antibody from HEK293-6E cells; also called B cell clone 9H5; BCMA clone 9H5
binding result [3]: binds | binding result [2]: binds

B3: anti-human BCMA antibody clone 5C1 (intracellular) (antibody, V domains shown)
VH: QSLEESRGGLFKPTDTLTLTCTVSGFSLKTYVINWVRQAPGNGLEWIGIIDTGDMTYYASWAKSRSTITRNTNENTVTLKMTSLTAADTATYFCASGDIWGPGTLVTVSS
VL: AQVLTQTASPVSAAVGGTVTINCQASQSVYSNWLSWFQQKPGQPPKRLIYSASTLASGVSSRFKGSGSGTQFTLTISDVQCDDAATYYCLGEFNCARADCRAFGGGTEVVVKG
notes: Rabbit monoclonal IgG/kappa1; also called B cell clone 5C1; intracellular clone 5C1
binding result [4]: binds | binding result [5]: binds

Source: patent US20240059782A1 (AGILENT TECHNOLOGIES, published 2024)
